Test results as given in article PMC12817079.

What was measured:
SOG1NAC (WT NAC domain) [1] = target: T1, SOG1NAC (WT NAC domain) (Arabidopsis thaliana, UniProt Q6NQK2 58-211); test: EMSA
T1 sequence: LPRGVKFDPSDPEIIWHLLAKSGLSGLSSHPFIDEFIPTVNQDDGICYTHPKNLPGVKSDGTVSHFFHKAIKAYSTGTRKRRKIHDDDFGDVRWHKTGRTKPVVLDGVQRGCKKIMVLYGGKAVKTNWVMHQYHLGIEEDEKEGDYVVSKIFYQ

SOG1NAC (WT NAC domain) [2] = target: T1, SOG1NAC (WT NAC domain); test: EMSA; remark: listed apart in the source
SOG1NAC (WT NAC domain) [3] = target: T1, SOG1NAC (WT NAC domain); test: EMSA; remark: listed apart in the source
SOG1NAC (WT NAC domain) [4] = target: T1, SOG1NAC (WT NAC domain); test: EMSA; remark: listed apart in the source
SOG1NAC-RKRR = target: T2, SOG1NAC-RKRR (Arabidopsis thaliana, UniProt Q6NQK2 58-211, R136A;K137A;R138A;R139A); test: EMSA
T2 sequence: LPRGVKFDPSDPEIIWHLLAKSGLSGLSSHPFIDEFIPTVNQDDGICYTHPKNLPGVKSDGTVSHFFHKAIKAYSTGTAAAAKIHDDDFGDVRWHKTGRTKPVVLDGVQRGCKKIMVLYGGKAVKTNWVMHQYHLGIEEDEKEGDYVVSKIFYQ

SOG1NAC-DNAstrand = target: T3, SOG1NAC-DNAstrand (Arabidopsis thaliana, UniProt Q6NQK2 58-211, R150S;H152S;T154A;R156S;T157S); test: EMSA
T3 sequence: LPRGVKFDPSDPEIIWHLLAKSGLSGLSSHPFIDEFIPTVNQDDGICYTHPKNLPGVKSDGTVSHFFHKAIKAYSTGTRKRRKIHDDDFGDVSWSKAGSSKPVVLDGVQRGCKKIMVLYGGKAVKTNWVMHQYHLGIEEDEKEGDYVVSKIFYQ

SOG1NAC (WT NAC domain) [5] = target: T1, SOG1NAC (WT NAC domain); test: ITC
SOG1NAC (WT NAC domain) [6] = target: T1, SOG1NAC (WT NAC domain); test: EMSA; remark: listed apart in the source
SOG1NAC (WT NAC domain) [7] = target: T1, SOG1NAC (WT NAC domain); test: EMSA; remark: listed apart in the source
SOG1NAC (WT NAC domain) [8] = target: T1, SOG1NAC (WT NAC domain); test: ITC; remark: listed apart in the source

B1: pTKa1 31 bp (dsDNA)
DNA 1: TGACAAATCTTCTCCAGCAATTTTCTTCCTT
DNA 2: AAGGAAGAAAATTGCTGGAGAAGATTTGTCA
- binding result (SOG1NAC (WT NAC domain) [1]): binds

B2: pSMR5 site 2 (RC) (dsDNA)
DNA 1: TTAGATTGCTTCTTTATTACACTAGTTTTGG
DNA 2: CCAAAACTAGTGTAATAAAGAAGCAATCTAA
- binding result (SOG1NAC (WT NAC domain) [2]): binds

B3: pSMR5 site 3 (dsDNA)
DNA 1: ATTAAGAACCTTATTAGGAAAGTGCGAGAGA
DNA 2: TCTCTCGCACTTTCCTAATAAGGTTCTTAAT
- binding result (SOG1NAC (WT NAC domain) [3]): no binding

B4: Designed oligo 1 (two pBRCA1 sites) (dsDNA)
DNA 1: TCTGTAAAGCTTTCAAGGGAAGCCTCTTTGACGTAACAGAAACCCCGGAGTAAGCTCCCGTGGGTCTGTAAAGCTTTCAAGGGAAGCCTCTTTGA
DNA 2: TCAAAGAGGCTTCCCTTGAAAGCTTTACAGACCCACGGGAGCTTACTCCGGGGTTTCTGTTACGTCAAAGAGGCTTCCCTTGAAAGCTTTACAGA
- binding result (SOG1NAC (WT NAC domain) [4]): binds

B5: pBRCA1 31 bp (dsDNA)
DNA 1: TCAAAGAGGCTTCCCTTGAAAGCTTTACAGA
DNA 2: TCTGTAAAGCTTTCAAGGGAAGCCTCTTTGA
- binding result (SOG1NAC-RKRR): no binding
- binding result (SOG1NAC-DNAstrand): no binding
- Kd (SOG1NAC (WT NAC domain) [5]): 139 nM

B6: pBRCA1 49 bp (dsDNA)
DNA 1: GCGTGTCCTTCAAAGAGGCTTCCCTTGAAAGCTTTACAGACTAAATAAA
DNA 2: TTTATTTAGTCTGTAAAGCTTTCAAGGGAAGCCTCTTTGAAGGACACGC
- binding result (SOG1NAC (WT NAC domain) [2]): binds

B7: Designed oligo 2 (one pBRCA1 site) (dsDNA)
DNA 1: TCTGTAAAGCTTTCAAGGGAAGCCTCTTTGACGTAACAGAAACCCCGGAGTAAGCTCCCGTGGGGTCGGCGATGGTGGTAACTAATTATGTTCCT
DNA 2: AGGAACATAATTAGTTACCACCATCGCCGACCCCACGGGAGCTTACTCCGGGGTTTCTGTTACGTCAAAGAGGCTTCCCTTGAAAGCTTTACAGA
- binding result (SOG1NAC (WT NAC domain) [6]): binds

B8: pSMR5 97 bp (dsDNA)
DNA 1: TACCTAGCAACTTCCAGAACAAGCTACGGTCACTTCCAAAACTAGTGTAATAAAGAAGCAATCTAATTAAGAACCTTATTAGGAAAGTGCGAGAGAG
DNA 2: CTCTCTCGCACTTTCCTAATAAGGTTCTTAATTAGATTGCTTCTTTATTACACTAGTTTTGGAAGTGACCGTAGCTTGTTCTGGAAGTTGCTAGGTA
- binding result (SOG1NAC (WT NAC domain) [7]): binds

B9: pXRI1 31 bp (dsDNA)
DNA 1: ATAAAAAGCTTCTCTTGCAATTCTCTCTTCC
DNA 2: GGAAGAGAGAATTGCAAGAGAAGCTTTTTAT
- binding result (SOG1NAC (WT NAC domain) [1]): binds

B10: pSMR5 site 1 (RC) (dsDNA)
DNA 1: TGACCGTAGCTTGTTCTGGAAGTTGCTAGGT
DNA 2: ACCTAGCAACTTCCAGAACAAGCTACGGTCA
- binding result (SOG1NAC (WT NAC domain) [2]): binds

B11: non-target 31 bp (random) (dsDNA)
DNA 1: GTCGGCGATGGTGGTAACTAATTATGTTCCT
DNA 2: AGGAACATAATTAGTTACCACCATCGCCGAC
- binding result (SOG1NAC (WT NAC domain) [8]): no binding
